Experiment: yeast display, Sf9 membrane polyspecificity reagent, FACS + sequencing; frameworks hold sequencing errors
Method in brief: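 A nanobody's polyreactivity label depends on the gate it was sorted from. Yeast display cells were stained with 10% biotinylated, detergent-solubilized Sf9 membrane reagent for 1 hour at 4 °C, enriched on streptavidin microbeads and sorted by FACS. The low and high (top ~1%) gates were set on anti-HA fluorescence for expression and streptavidin fluorescence for reagent binding.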

Row | Sequence | polyreactivity (PSR sort gate)
1 | QDQLVESAGGLVQAGGSLRLSCAASGSNFYHYAMGWYRQAHGKERELVAAISQSGGGTYYADSVKGRFTISRDNAKNTVYLQMNSLKPEDTAVYYFAAKGRHNYYYWGQGTLVTVSS | high polyreactivity
2 | QVQLVESGGGLVQAGGSLRLSCAASGIIFYDYAMGWYRQAPGKERELVASISWSSGSTYYADSVKGRFTISRDNAKNTVYLQMNSLKPEDTAVYYCAADGYPLQLYNYWGQGTQVTVSS | low polyreactivity
3 | QVQLVESGGGLVQAGGSLRLSCAASGRTFGYYAMGWYRQAPGKERELVATITWSGGSTYYADSVKGRFTISRDNAKNTVYLQMNSLKPEDTAVYYCATGQYGYWYGTENDYWGQGTQVTVSS | low polyreactivity
4 | QVQLVESGGGLVQAGGSLRLSCAASGITFRRNAMGWYRQAPGKERELVAGITRGGTTKYADSVKGRFTISRDNAKNTVYLQMNSLKPEDTAVYYCNAVTRRHKYYYWGQGTQVTVSS | high polyreactivity
5 | QVQLVESGGGLVQAGGSLRLSCAASGSIFSPNAMGWYRQAPGKERELVASITNGGSTYYADSVKGRFTISRDNAKNTVYLQMNSLKPEDTAVYYCAADHNETGLRVKVYEYDYWGQGTQVTVSS | low polyreactivity
6 | QVQLVESGGGLVQAGGSLRLSCAASGYTFASYTMGWYRQAPGKERELVATISRGGGRTYYADSVKGRFTISRDNAKNTVYLQMNSLKPEDTAVYYCARPSTFYTGYRQAHFDYWGQGTQVTVSS | high polyreactivity
7 | QVQLVESGGGLVQAGGSLRLSCAASGIIIHSYTMGWYRPAPGKERELVAAISTSGSTYYADSVKGRFTISRDNAKNTVYLQMHILKPEDTAVYYCNADYAQSGTNSQVGKYGYWGQGTQVTVSS | high polyreactivity
8 | QVQLVESGGGLVQAGGRLRLSCAASGSIFINNTMGWYRQAPGKERELVAAISITGGSTYYADSVKGRFTISRDNAKNTVYLQMNSLKPEDTAVYYCAADPLQLYDYNYWGQCTQVTVSS | low polyreactivity
9 | QLQLVESGGGLVQAGGSLRLSCAASGRIFIYNAMGWYRQAPGKERELVAAINRSGVSTHYADSVKGRFTISRDNAKNTVYLQMNSLKPEDTAVYYCARTVYGARSFDYWGQGTQVTVSS | low polyreactivity
10 | QVQLVESGGGLVQAGGSLRLSCAASGRTFYTNAMGWYRQAPGKERELVAVISRGGTTYYADSVKGRFTISRDNAKNTVYLQMNSLKPEDTAVYYCAKQRPSGESSSQMGSWGQGTQVTVSS | low polyreactivity
11 | QVQLVESGGGLVQAGGSLRISCAASGRTFKRYAMGWYRQAPGKERELVAAITGTGAITYYADSVKGRFTISRDNAKNTVYLQMNSLKPEDTAVYYCNARYWYRYGGYKPVGGYYWGQGTQVTVSS | high polyreactivity
12 | QVQRVESGGGLVQAGGSLRLSCAASGIIFRGYAMGWYRQAPGKERELVAAITSSGARTYYADSVKGRFTISRDNAKNTVYLQMNSLKPDDTAVYYCNATSSVRRYDSWGQGTQVTVSS | high polyreactivity
13 | QVQLVESGGGLVQAGGSLRLRCAASGSTFPPNAMGWYRQAPGKERELVAVISNGGSNTRYADSVKGRFTISRDHAKNTVYLQMNSLKPEDTAVYYCAADYEYSGYGYWGQGTQVTVSS | high polyreactivity
14 | QVQLVESGGGLVQAGGSLRLSCAASGRIFSRYTMGWYRQAPGKERELVAAISYRGGSTYYADSVKGRFTISRDNAKNTVYLQMNSLKPEDTAVYYCAARVQAIYRYDYWGQGTQVTVSS | high polyreactivity
15 | QVQLVESGGGLVQAGGSLRLSCDASGSTLSENVMGWYRQAPGKERELVATISYSGDSTYYADSVKGRFTISRDNAKNTVYLQMNSLKPEDTAVYYCAAGVGWDFAYWGQGTQVTVSS | low polyreactivity
16 | QVQLVESGGGLVQAGGSLRLSCADSGITFSRNAMGWYRQAPGKEMELVATITSGGSTNYADSVKGRFTISRDNAKNTVYLQMNSLKPEDTAVYYCNAVWNTFISGRSYDYWGQGTQVTVSS | low polyreactivity
17 | QVQLVESGGGLVQAGGSLRVSCASSGFTFVYYAMVWYRQAPGKERELVATISGNGGRTYYADSVKGRFTISRDNAKNTVYLLMHSLKPEDTAVYYSAALLYIRSVGDDYWGQGTKVTVSS | low polyreactivity
18 | QVQLVESVGALVQARGSLRLSCAASGFTFRPYAMGWYRQAPGKERELVAAITRSGGSTYYADSVKGRFTISRDTAKNTVYLQMNSLKPEDTAVYYCAARFARSEYDYWGQGTQVTVSS | high polyreactivity
19 | QVQLVESGGGLVQAGGSLRLSCAASGSIFGFYGMGWYRQAPGKERELVAAISSRGGNTYYADSVKGRFTISRDNAKNTVYLQMNSLKPEDTAVYYCNAYRYVRHYSFDYWGQGTQVTVSS | high polyreactivity
20 | QVQLVESGGGLVQAGGSLRLSCAASGSTFARNAMGWYRQAPGKERELVAAITYSGGRTYYADSVKGRFTISRDNAKNTVYLQMNSLKPEDTAVYYCAADIVSSTDYPFDYWGQGTQVTVSS | low polyreactivity
21 | QVQLLESGGGLFQAGGSLRLSCAASGRIFDPYAMGWYRKAPWKETELVAAISWRGGSTNYADSVKGRFTISRDNAKNTVYLQMNSLKPEDTAVYYCAAVPVRYRYSYGYYYWGQGTQVTVSS | high polyreactivity
22 | QVQLVESGGGLVQAGGSLRLSCAASGSTFDAYAMGWYRPAPGTERELVAGISTSGGSTYYADSVKGRFTISRDNAKYTVVLQMNSMIPEVYAVYYCGAGVFRYVDRYGDMEYWGQGTQVTVSS | low polyreactivity

Row | Sequence | polyreactivity (PSR sort gate)
23 | QVQLVESGGGLVQAGGSLRLSCAASGGTFQQHAMGWYRKAPGTERELVAAISRSGGNTYYADSVKGRFTISRDNSKNTVYFQMNSLKPEDTAVYSCAVVSSSQYSRYTSQWKEYYWGKGTQVTVSS | low polyreactivity
24 | QVQLVESVGGLVQAGGSLRLSCAASVYIFGYNAMGWYRQAPGKERELVAAISRSAGRTYYAVSVKGRFTISRDNAKNTVYLQMNSLKPEDTAVYYCAAQSYWLCYEYWGHGTQVTVSS | high polyreactivity
25 | QVQLVESGGGLVQAGGSLRLSCAASGGIFLPNAMGWYRQAPGKERELVAAISTGGSTNYADSVKGRFTISRDTAKNTVYLQMNSLKPEDTAVYYCAATPYNYVGFSRGGDYWGQGTQVTVSS | low polyreactivity
26 | QVQLVESGGGLVQAGGSLRLSCAASGSIFNINAMGWYRQAPGKEREFVAAIDYSDSTYYADSVKGRFTISRDNAKNTVYLQMNSLKPEDTAVYYCAADVWKDGYWGDYWGQGTQVNVSS | high polyreactivity
27 | QVQLVESGGGLVQAGGILRLSCAASGSNFRRNVMWYRQEPGKERELVAGISWRGTSTYYADSVNGRFTISRDNAKNTVYLQMNRLKPEDSAVYYCAALPFVYHRVNEFDYWGQGTQVTVSS | high polyreactivity
28 | QVQLVESGGGLVQAGGSLRLSCAASGSNFRDNGMGWYRQAPGKERELVAAINSGDSTYYADSVKGRFTISRDNAKNTVYLQMNSLKPEDTAVYYCNADDRRALSQRQYDWYDYWGQGTQVTVSS | low polyreactivity
29 | QVQLVESGGGLVQAGGSLRLSCAASGIIFWYNAMGWYRQAPWKERELVASISTGGRTYYADSVKGRFTISRDNAKNTVYLQMNSLKPEDTAVYYCAAASRVGFLYYYWGQGTQVTVSS | low polyreactivity
30 | QVQLVESGGGLVQAGGSLRLSCAASGITLLYYAMGWYRQAPGKERELVAAISRRGGSTYYADSVKGRFTISRDNAKNTVYLQMNSLKPEDTAVYYCAAYSPYGGYHYLYDYWGQGTEVTVSS | high polyreactivity
31 | QVQLVESGGGLVQAGGSLRLSCAASGSIFSGYVMGWYRQAPGKERELVAAITWSGGRTYYADSVKGRFTISRDNAKNTVYLQMNSLKPEDTAVYYCAKRKIKSSGYYYWGQGTQVTVSS | high polyreactivity
32 | QVQLVESGGGLVQAGGSLRLSCAASGSIFPQYAIGWYRQAPGKERELVAAITRSGGGTHYADSVKGRFTISRDNAKNTVYLQMNSLKPEDTAVYYCAKAGYRSEFEYWGQGTQVTVSS | low polyreactivity
33 | QVQLVESAGGLVQAGGSLRLSCAASGIIFTSNTMGWYRQAPGKEREFVASINWNGSSTYADSVKGRFTISRDNAKNTVYLQMNSLKPEDTAVYYCAADWLGYQYGYWGQGTQVTVSS | low polyreactivity
34 | QVQLVESGGGLVQAGGSLRLSCAASGITGHNAMGWYIQAPGKERELVARISSGGRTNYADSVKGRFTISRDNAKNTVYLQMNSLKPEDTAVYYCAAGFRVGSFLRYNYWGQGTQVTVSS | high polyreactivity
35 | QVQLVESGGGLVQAGGSLRLSCAASGLTFTGNAMGWNRQAPGKEREFVAAIRWSAGSTYYADSVKGRFTISRDNAKNTVYLQMNSLKPEDSAVYYCNAGLNVSGHYPNDYWGQGTQVTVSS | low polyreactivity
36 | QVKLVESGGGLVQAGGSLRLSCAASGRIFGYYDMGLYRQAPGKDRELVAAISWNGGSTSYADSVKGRFTISRDNAKNTVYLQMNSLKPEDTAVYYCAAETQYDGYVGSFYYWGQGTQVTVSS | low polyreactivity
37 | QDQLVESGGGLVQAGGSLRLSCAASGFIFGYYAMGWYRQAPGKERDLFAAINKNGGSTYYADSVKGRFTISRDNAKNTFYLQRNSLIPEDTAVYYCASRARGYAWTYDYWGQGTQVTVSS | high polyreactivity
38 | QVQLVESGGGLVQAGGSLRLSCAASGSTFWSYTMGWYRQAPGKEREWVAAISRSGGSTYYADSVKGRFTISRDNAKNTVYLQLNSLKPEDTAVYYCAAADRYGSRYYYWGQGTQVTVSS | high polyreactivity
39 | QVKLVESGGGLVQAGGSLRLSCAAYGLIMGRYAMGWYRQEPGKERELVAAISGSGGSTYYADSVKGRFTISRDNAKNTVYLQMNSLKPEDTAVYYCAADRLRYRDMYYWGQGTQVTVSS | low polyreactivity
40 | QVQLVESGGGLVQAGGILRLSWAASGFTFDSNAMGWYRQAPGKERELVASISSSGSTNYADCVKGRFTISRDNAKNTVDFQMNSLKPEDTAVYSCAAESRYPFIYEYWGQGTEVTVSS | low polyreactivity
41 | QVQLVESGGGLVQAGGSLRLSCAASGSIFYRYAMGWYRQAPGKERELVAAISYSGGSTYYADSVKGRFTISRDNAKNTVYLQMNSQKPEDTAVYYCAKDYPPPISDYSRYYGYGYWGKGTQVTVSS | low polyreactivity
42 | PVQLVESGGGLGQAGGSLRLSCAASGLTFGRYAMGWYRQAPGKERELVAAITRSGGRTYYADSVKGRFTISRDNAKNTVYLQMNSLKPEDTAVYYCNTRSHLGAPGDPDDYWGQGTQVTVTS | high polyreactivity
43 | QVQLVESGGGLVQAGGSLRLSCAASGSNFRRNAMGWYRQAPGKERELVAAINSRGGSTYYADSVKGRFTISRDNAKNTVYLQMNSLKPEDTAVFYCATARFLRYDRYDDYWGQGTQVTVSS | low polyreactivity
